Assay results from patent publication US20230097015A1 (SEOUL NATIONAL UNIVERSITY R AND DB FOUNDATION, published 2023).

Key:
TycC COM^A-CHS = molecular target: T1, TycC COM^A-CHS
T1 chain: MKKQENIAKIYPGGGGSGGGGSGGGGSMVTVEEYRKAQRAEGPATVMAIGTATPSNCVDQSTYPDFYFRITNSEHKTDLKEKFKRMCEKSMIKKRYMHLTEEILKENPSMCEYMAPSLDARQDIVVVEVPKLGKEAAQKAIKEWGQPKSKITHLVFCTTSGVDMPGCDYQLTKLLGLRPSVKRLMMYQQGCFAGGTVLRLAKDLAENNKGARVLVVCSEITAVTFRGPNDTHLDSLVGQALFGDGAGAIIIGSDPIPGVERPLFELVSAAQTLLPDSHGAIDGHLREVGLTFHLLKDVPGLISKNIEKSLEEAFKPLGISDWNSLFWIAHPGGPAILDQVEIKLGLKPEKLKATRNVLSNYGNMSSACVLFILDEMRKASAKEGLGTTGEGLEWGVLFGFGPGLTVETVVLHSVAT

MlnC COM^A-CHS = molecular target: T2, MlnC COM^A-CHS
T2 chain: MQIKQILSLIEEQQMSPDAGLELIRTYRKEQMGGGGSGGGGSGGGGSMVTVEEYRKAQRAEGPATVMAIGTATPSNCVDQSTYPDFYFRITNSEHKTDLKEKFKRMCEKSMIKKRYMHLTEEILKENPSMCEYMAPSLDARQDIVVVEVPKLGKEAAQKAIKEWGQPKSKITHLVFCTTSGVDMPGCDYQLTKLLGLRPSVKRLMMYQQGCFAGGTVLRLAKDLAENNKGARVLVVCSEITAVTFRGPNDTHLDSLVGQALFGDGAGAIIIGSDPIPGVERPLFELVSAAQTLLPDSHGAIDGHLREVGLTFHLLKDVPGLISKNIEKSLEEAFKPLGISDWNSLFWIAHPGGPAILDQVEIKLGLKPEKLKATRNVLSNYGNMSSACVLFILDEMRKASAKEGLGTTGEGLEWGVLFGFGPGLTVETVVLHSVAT

TycB COM^A-CHS = molecular target: T3, TycB COM^A-CHS
T3 chain: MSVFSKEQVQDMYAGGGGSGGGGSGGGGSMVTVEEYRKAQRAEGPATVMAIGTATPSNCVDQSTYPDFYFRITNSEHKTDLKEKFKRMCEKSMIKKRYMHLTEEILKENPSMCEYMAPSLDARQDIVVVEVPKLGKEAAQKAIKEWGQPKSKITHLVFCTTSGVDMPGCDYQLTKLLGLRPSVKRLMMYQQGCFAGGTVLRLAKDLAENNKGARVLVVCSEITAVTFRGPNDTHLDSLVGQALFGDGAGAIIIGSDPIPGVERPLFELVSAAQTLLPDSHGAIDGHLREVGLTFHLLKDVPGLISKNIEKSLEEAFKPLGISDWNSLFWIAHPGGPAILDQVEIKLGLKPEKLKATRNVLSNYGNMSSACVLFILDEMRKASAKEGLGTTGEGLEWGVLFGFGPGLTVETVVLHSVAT

MlnE COM^A-CHS = molecular target: T4, MlnE COM^A-CHS
T4 chain: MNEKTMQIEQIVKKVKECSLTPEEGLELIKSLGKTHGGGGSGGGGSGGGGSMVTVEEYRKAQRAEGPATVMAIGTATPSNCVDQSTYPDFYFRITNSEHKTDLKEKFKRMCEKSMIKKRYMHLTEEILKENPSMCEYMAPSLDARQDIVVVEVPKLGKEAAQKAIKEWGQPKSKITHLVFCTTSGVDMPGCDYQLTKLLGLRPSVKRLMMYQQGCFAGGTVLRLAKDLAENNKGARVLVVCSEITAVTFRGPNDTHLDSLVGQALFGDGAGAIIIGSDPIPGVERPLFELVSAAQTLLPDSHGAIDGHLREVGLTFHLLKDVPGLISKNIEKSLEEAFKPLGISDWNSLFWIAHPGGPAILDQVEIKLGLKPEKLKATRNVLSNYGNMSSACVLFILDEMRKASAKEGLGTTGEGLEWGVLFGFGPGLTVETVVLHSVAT

Kj12C COM^A-CHS = molecular target: T5, Kj12C COM^A-CHS
T5 chain: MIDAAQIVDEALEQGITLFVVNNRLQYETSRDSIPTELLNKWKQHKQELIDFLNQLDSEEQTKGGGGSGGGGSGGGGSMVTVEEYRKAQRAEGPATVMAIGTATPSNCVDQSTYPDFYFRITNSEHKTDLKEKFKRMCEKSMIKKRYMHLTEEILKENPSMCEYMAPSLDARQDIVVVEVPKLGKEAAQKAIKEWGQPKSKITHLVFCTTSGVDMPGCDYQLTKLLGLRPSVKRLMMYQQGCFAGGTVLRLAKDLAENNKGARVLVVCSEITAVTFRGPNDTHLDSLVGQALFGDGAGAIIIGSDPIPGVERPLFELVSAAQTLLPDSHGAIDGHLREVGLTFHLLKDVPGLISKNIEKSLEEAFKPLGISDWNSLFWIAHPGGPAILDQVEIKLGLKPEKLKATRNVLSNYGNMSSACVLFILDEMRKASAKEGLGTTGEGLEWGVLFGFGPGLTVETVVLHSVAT

B1: 4CL-TycB COM^D (protein)
chain: MAPQEQAVSQVMEKQSNNNNSDVIFRSKLPDIYIPNHLSLHDYIFQNISEFATKPCLINGPTGHVYTYSDVHVISRQIAANFHKLGVNQNDVVMLLLPNCPEFVLSFLAASFRGATATAANPFFTPAEIAKQAKASNTKLIITEARYVDKIKPLQNDDGVVIVCIDDNESVPIPEGCLRFTELTQSTTEASEVIDSVEISPDDVVALPYSSGTTGLPKGVMLTHKGLVTSVAQQVDGENPNLYFHSDDVILCVLPMFHIYALNSIMLCGLRVGAAILIMPKFEINLLLELIQRCKVTVAPMVPPIVLAIAKSSETEKYDLSSIRVVKSGAAPLGKELEDAVNAKFPNAKLGQGYGMTEAGPVLAMSLGFAKEPFPVKSGACGTVVRNAEMKIVDPDTGDSLSRNQPGEICIRGHQIMKGYLNNPAATAETIDKDGWLHTGDIGLIDDDDELFIVDRLKELIKYKGFQVAPAELEALLIGHPDITDVAVVAMKEEAAGEVPVAFVVKSKDSELSEDDVKQFVSKQVVFYKRINKVFFTESIPKAPSGKILRKDLRAKLANGLGGGGSGGGGSEYTPSDLGDEELSMEELENILEWI
production of naringenin (UPLC-qTOF-HR-MS), two-step in vitro reaction (TycC COM^A-CHS): the productivity by the metabolons with the remaining four pairs showed improvement

B2: 4CL-MlnB COM^D (protein)
chain: MAPQEQAVSQVMEKQSNNNNSDVIFRSKLPDIYIPNHLSLHDYIFQNISEFATKPCLINGPTGHVYTYSDVHVISRQIAANFHKLGVNQNDVVMLLLPNCPEFVLSFLAASFRGATATAANPFFTPAEIAKQAKASNTKLIITEARYVDKIKPLQNDDGVVIVCIDDNESVPIPEGCLRFTELTQSTTEASEVIDSVEISPDDVVALPYSSGTTGLPKGVMLTHKGLVTSVAQQVDGENPNLYFHSDDVILCVLPMFHIYALNSIMLCGLRVGAAILIMPKFEINLLLELIQRCKVTVAPMVPPIVLAIAKSSETEKYDLSSIRVVKSGAAPLGKELEDAVNAKFPNAKLGQGYGMTEAGPVLAMSLGFAKEPFPVKSGACGTVVRNAEMKIVDPDTGDSLSRNQPGEICIRGHQIMKGYLNNPAATAETIDKDGWLHTGDIGLIDDDDELFIVDRLKELIKYKGFQVAPAELEALLIGHPDITDVAVVAMKEEAAGEVPVAFVVKSKDSELSEDDVKQFVSKQVVFYKRINKVFFTESIPKAPSGKILRKDLRAKLANGLGGGGSGGGGSKNEDQEILFLLEQLKNGELSADQVYQLLEGK
production of naringenin (UPLC-qTOF-HR-MS), two-step in vitro reaction (MlnC COM^A-CHS): the productivity by the metabolons with the remaining four pairs showed improvement | production of naringenin (UPLC-qTOF-HR-MS), two-step in vitro reaction, against free enzymes (MlnC COM^A-CHS): improved by 2 fold or more compared to that by free enzymes (Free) after 20 minutes of the reaction

B3: 4CL-TycA COM^D (protein)
chain: MAPQEQAVSQVMEKQSNNNNSDVIFRSKLPDIYIPNHLSLHDYIFQNISEFATKPCLINGPTGHVYTYSDVHVISRQIAANFHKLGVNQNDVVMLLLPNCPEFVLSFLAASFRGATATAANPFFTPAEIAKQAKASNTKLIITEARYVDKIKPLQNDDGVVIVCIDDNESVPIPEGCLRFTELTQSTTEASEVIDSVEISPDDVVALPYSSGTTGLPKGVMLTHKGLVTSVAQQVDGENPNLYFHSDDVILCVLPMFHIYALNSIMLCGLRVGAAILIMPKFEINLLLELIQRCKVTVAPMVPPIVLAIAKSSETEKYDLSSIRVVKSGAAPLGKELEDAVNAKFPNAKLGQGYGMTEAGPVLAMSLGFAKEPFPVKSGACGTVVRNAEMKIVDPDTGDSLSRNQPGEICIRGHQIMKGYLNNPAATAETIDKDGWLHTGDIGLIDDDDELFIVDRLKELIKYKGFQVAPAELEALLIGHPDITDVAVVAMKEEAAGEVPVAFVVKSKDSELSEDDVKQFVSKQVVFYKRINKVFFTESIPKAPSGKILRKDLRAKLANGLGGGGSGGGGSERTPSDFSVKGLQMEEMDDIFELLANTLR
production of naringenin (UPLC-qTOF-HR-MS), two-step in vitro reaction (TycB COM^A-CHS): the productivity by the metabolons with the remaining four pairs showed improvement

B4: 4CL-MlnD COM^D (protein)
chain: MAPQEQAVSQVMEKQSNNNNSDVIFRSKLPDIYIPNHLSLHDYIFQNISEFATKPCLINGPTGHVYTYSDVHVISRQIAANFHKLGVNQNDVVMLLLPNCPEFVLSFLAASFRGATATAANPFFTPAEIAKQAKASNTKLIITEARYVDKIKPLQNDDGVVIVCIDDNESVPIPEGCLRFTELTQSTTEASEVIDSVEISPDDVVALPYSSGTTGLPKGVMLTHKGLVTSVAQQVDGENPNLYFHSDDVILCVLPMFHIYALNSIMLCGLRVGAAILIMPKFEINLLLELIQRCKVTVAPMVPPIVLAIAKSSETEKYDLSSIRVVKSGAAPLGKELEDAVNAKFPNAKLGQGYGMTEAGPVLAMSLGFAKEPFPVKSGACGTVVRNAEMKIVDPDTGDSLSRNQPGEICIRGHQIMKGYLNNPAATAETIDKDGWLHTGDIGLIDDDDELFIVDRLKELIKYKGFQVAPAELEALLIGHPDITDVAVVAMKEEAAGEVPVAFVVKSKDSELSEDDVKQFVSKQVVFYKRINKVFFTESIPKAPSGKILRKDLRAKLANGLGGGGSGGGGSDTADGEIMSLLEKAQTGEMNTKETSELIEELLFHE
production of naringenin (UPLC-qTOF-HR-MS), two-step in vitro reaction (MlnE COM^A-CHS): the productivity by the metabolons with the remaining four pairs showed improvement

B5: 4CL-Kj12B COM^D (protein)
chain: MAPQEQAVSQVMEKQSNNNNSDVIFRSKLPDIYIPNHLSLHDYIFQNISEFATKPCLINGPTGHVYTYSDVHVISRQIAANFHKLGVNQNDVVMLLLPNCPEFVLSFLAASFRGATATAANPFFTPAEIAKQAKASNTKLIITEARYVDKIKPLQNDDGVVIVCIDDNESVPIPEGCLRFTELTQSTTEASEVIDSVEISPDDVVALPYSSGTTGLPKGVMLTHKGLVTSVAQQVDGENPNLYFHSDDVILCVLPMFHIYALNSIMLCGLRVGAAILIMPKFEINLLLELIQRCKVTVAPMVPPIVLAIAKSSETEKYDLSSIRVVKSGAAPLGKELEDAVNAKFPNAKLGQGYGMTEAGPVLAMSLGFAKEPFPVKSGACGTVVRNAEMKIVDPDTGDSLSRNQPGEICIRGHQIMKGYLNNPAATAETIDKDGWLHTGDIGLIDDDDELFIVDRLKELIKYKGFQVAPAELEALLIGHPDITDVAVVAMKEEAAGEVPVAFVVKSKDSELSEDDVKQFVSKQVVFYKRINKVFFTESIPKAPSGKILRKDLRAKLANGLGGGGSGGGGSLLKEKRKHFQAEQNSSQEYLRGEI
production of naringenin (UPLC-qTOF-HR-MS), two-step in vitro reaction (Kj12C COM^A-CHS): productivity by 2-step metabolon_5, Kj12B-C was found similar to that by free enzymes (2-step_control: Free)
